Data as given in patent US11248019B2, “Trityl-mono-GalNAc compounds and their use” (Hoffmann-La Roche Inc., priority 2016, dated 2022).

How the values were obtained:
Format in all cases: in vivo, C57BL6/J mice
[1] = Oligonucleotide content in liver and kidney by ELISA (Example 6); details: for Oligonucleotide content in kidney tissue / Oligonucleotide content in liver tissue: day 3
Protocol: (§1) Female C57BL6/J mice (5/group appr. 20 g at arrival) were injected intravenous (iv) with a single dose saline, 0.22 mg/kg, 0.45 mg/kg or 0.89 mg/kg, of GalNAc conjugated LNA antisense oligonucleotide (Compound H, I or J of the invention) or the naked reference compound F. Blood samples of 50 μl were collected pre-dosing at day minus 6. The animals were sacrificed at day 3. Total serum was collected as well as liver and kidney.
The oligonucleotide content in the liver and kidney was measured using ELISA (see for example Straarup et al 2010 Nucleic Acid Res Vol 38 pp 7100-7111), results are shown in Table 11A and 11B.

[2] = test system: total cholesterol in serum; assay: Total cholesterol in serum (Example 6); details: day 3
Protocol: as §1
Total cholesterol in serum was measured using ABX Pentra Cholesterol CP (Triolab, Brondby, Denmark) according to the manufacturer's instructions.

[3] = ALT in serum (Example 7); details: 0.1 mg/kg single iv dose
Protocol: (§2) Female C57BL6/J mice (5/group appr. 20 g at arrival) were injected intravenous (iv) with a single dose saline or 0.1 mg/kg of GalNAc conjugated LNA antisense oligonucleotide (Compound J, K, L, B or C of the invention or reference compound M). Blood samples of 50 μl were collected pre-dosing at day minus 6, and post dosing at day 3, 7, 10 and 14. The animals were sacrificed at day 7 or 14 and total serum was collected as well as liver and kidney.
ALT (Alanine aminotransferase) was measured using ABX Pentra ALT CP reagent (A11A01627 Triolab, Brondby, Denmark. The results are shown in table 17.

[4] = test system: ApoB mRNA; assay: ApoB mRNA knockdown in liver and kidney by qPCR, single iv dose 0.1 mg/kg, day 7 or 14 (Example 7); details: 0.1 mg/kg single iv dose
Protocol: (§3) ApoB mRNA knockdown was analyzed by qPCR. In brief, RNA was isolated from homogenized liver and kidney using MagnaPure RNA Isolation and purification system (catalog #03604721001 and #05467535001; Roche) according to the manufacturer's instructions. RT-QPCR was done using Taqman Fast Universal PCR Master Mix 2×(Applied Biosystems Cat #4364103) and Taqman gene expression assay (mApoB, Mn01545150_m1 and mGAPDH #4352339E) following the manufacturers protocol.
as §2
ApoB mRNA knock down was measured as described in example 4.

[5] = Oligonucleotide content in liver and kidney by ELISA (Example 7); details: 0.1 mg/kg single iv dose
Protocol: as §2
The oligonucleotide content in the liver and kidney was measured using ELISA (see for example Straarup et al 2010 Nucleic Acid Res Vol 38 pp 7100-7111), results are shown in Table 16.

[6] = ALT in serum (Example 6)
Protocol: as §1
ALT (Alanine aminotransferase) was measured using ABX Pentra ALT CP reagent (A11A01627 Triolab, Brondby, Denmark. The results are shown in Table 13.

[7] = test system: ApoB mRNA; assay: ApoB mRNA knockdown in liver and kidney by qPCR, single iv dose, sacrifice day 3 (Example 6)
Protocol: as §3, §1

Substance: 5′-GS^mCSaStStSgSgStSaStSTS^mCSA-3′ [Compound J]
- Oligonucleotide content in kidney tissue ([1]; 0.22 mg/kg single iv dose): 0.169 µg/g
- Oligonucleotide content in liver tissue ([1]; 0.22 mg/kg single iv dose): 0.313 µg/g
- Oligonucleotide content in kidney tissue ([1]; 0.45 mg/kg single iv dose): 0.549 µg/g
- Oligonucleotide content in liver tissue ([1]; 0.45 mg/kg single iv dose): 0.710 µg/g
- Oligonucleotide content in kidney tissue ([1]; 0.89 mg/kg single iv dose): 1.040 µg/g
- Oligonucleotide content in liver tissue ([1]; 0.89 mg/kg single iv dose): 1.478 µg/g
- liver to kidney ratio compared to unconjugated (naked) oligonucleotide (compound F) ([1]; in words, tables 9 to 11): improved liver to kidney ratio
- serum cholesterol percent of saline ([2]; 0.22 mg/kg single iv dose): 37.3% of saline
- serum cholesterol percent of saline ([2]; 0.45 mg/kg single iv dose): 21.5% of saline
- serum cholesterol percent of saline ([2]; 0.89 mg/kg single iv dose): 10.0% of saline
- serum cholesterol reduction ([2]; in words, single iv dose): serum cholesterol reduction
- ALT levels (U/L) in serum as % of saline ([3]; Day 7): 128.6 % of saline
- ALT levels (U/L) in serum as % of saline ([3]; Day 14): 126.1 % of saline
- ApoB mRNA/mGAPDH expression as % of saline, Avg kidney ([4]; Day 7, kidney): 83.9 % of saline
- ApoB mRNA/mGAPDH expression as % of saline, Avg liver ([4]; Day 7, liver): 56.0 % of saline
- ApoB mRNA/mGAPDH expression as % of saline, Avg kidney ([4]; Day 14, kidney): 96.8 % of saline
- ApoB mRNA/mGAPDH expression as % of saline, Avg liver ([4]; Day 14, liver): 107.6 % of saline
- Oligonucleotide content, Avg kidney ([5]; Day 7, kidney tissue): 0.153 µg/g
- Oligonucleotide content, Avg liver ([5]; Day 7, liver tissue): 0.276 µg/g
- Oligonucleotide content, Avg kidney ([5]; Day 14, kidney tissue): 0.079 µg/g
- Oligonucleotide content, Avg liver ([5]; Day 14, liver tissue): 0.163 µg/g
- ALT levels (U/L) in serum at day 3 as % of saline ([6]; 0.22 mg/kg single iv dose): 101 % of saline
- ALT levels (U/L) in serum at day 3 as % of saline ([6]; 0.45 mg/kg single iv dose): 201 % of saline
- ALT levels (U/L) in serum at day 3 as % of saline ([6]; 0.89 mg/kg single iv dose): 1558 % of saline
- ALT levels ([6]; in words, highest dose (0.89 mg/kg)): some animals showed increase ALT levels
- ApoB mRNA expression as % of saline in kidney ([7]; 0.22 mg/kg single iv dose): 117.0 % of saline
- ApoB mRNA/mGAPDH expression as % of saline in liver ([7]; 0.22 mg/kg single iv dose): 12.8 % of saline
- ApoB mRNA expression as % of saline in kidney ([7]; 0.45 mg/kg single iv dose): 90.7 % of saline
- ApoB mRNA/mGAPDH expression as % of saline in liver ([7]; 0.45 mg/kg single iv dose): 6.3 % of saline
- ApoB mRNA expression as % of saline in kidney ([7]; 0.89 mg/kg single iv dose): 64.1 % of saline
- ApoB mRNA/mGAPDH expression as % of saline in liver ([7]; 0.89 mg/kg single iv dose): 3.0 % of saline
- ApoB knock down in the liver ([7]; in words, single iv dose): improved ApoB knock down in the liver
